Data as given in FireProtDB (doi:10.1002/prot.20496).
“And” between values parts separate entries of the source, which are not always exact repeats. Identical values can stand only once.

Conditions: Capra hircus, pH 7.5, Thermal, Tris-HCl 10 mM, CaCl2 2 mM, whole UniProt chain shown

B1: Alpha-lactalbumin wild type, P00712 (protein)
chain: MMSFVSLLLVGILFHATQAEQLTKCEVFQKLKDLKDYGGVSLPEWVCTAFHTSGYDTQAIVQNNDSTEYGLFQINNKIWCKDDQNPHSRNICNISCDKFLDDDLTDDIVCAKKILDKVGINYWLAHKALCSEKLDQWLCEKL
- Tm (DSC): 71 °C and 71.1 °C
- Tm (Fluorescence): 70.7 °C and 71.2 °C and 69.9 °C
